This note sets out measurements from publication PMC5567082.

This test addresses polyhistidine-tagged canine PD-L1 protein (cPD-L1-His) (dog). Nature of the test: SPR; Biacore X100, CM5 chip, His Capture Kit: cPD-L1-His captured by immobilised anti-histidine antibody (approximately 400 RU); cPD-1-Ig or cCD80-Ig flowed over; HBS-EP+ running and dilution buffer; two state reaction model. A general note: SPR reads the build-up and loss of mass on a sensor chip optically.

For orientation: Kd means the constant that tells how readily two partners part at equilibrium. Lower therefore signals higher affinity.

As to “recombinant canine CD80 protein fused to rabbit IgG Fc (cCD80-Ig) (Fc fusion)”, the Kd was 24.3 nM.
Next, “recombinant canine PD-1 protein (cPD-1-Ig) (Fc fusion)”: 25.4 nM.
